Experimental data published in PMC6232179 (Scientific Reports, 2018).

What was measured:
COX-2 peroxidase = conditions: COX-2 H374Y mutant; cited from earlier work
Text: Thus, we generated a cell line overexpressing His-tagged COX-2 (HEK293 COX-2 OE) as well as a cell line overexpressing the His-tagged COX-2 H374Y mutant (Fig. 6A), which has a 300-fold reduction in peroxidase activity.

IRE1-NLD = assay: MST, COX-2 titrated to RED-labeled IRE1-NLD; assay type: binding; conditions: red labelled IRE1-NLD, Suppl. Fig. S9
Protocol: MST was carried out using a Monolith NT.115 instrument (NanoTemper). To evaluate COX-2 binding to IRE1-NLD, an increasing concentration of purified COX-2 protein (0–10 µM) was incubated with RED-labeled purified IRE1-NLD protein (NanoTemper; as per manufacturer’s protocol). The reverse was also performed, with RED-labeled purified COX-2 incubated with an increasing concentration of purified IRE1-NLD. Positive (cyclophilin A) and negative controls (carbonic anhydrase) were included. […] Positive (cyclophilin A) and negative controls (carbonic anhydrase) were included. […] Experiments were done in triplicate and data evaluation was performed using the Monolith software (NanoTemper).

- binding to IRE1-NLD (MST), wild-type and H374Y (IRE1-NLD): bound to IRE1-NLD
B1: COX-2 H374Y: COX-2 H374Y mutant protein (protein)
chain: ANPCCSHPCQNRGVCMSVGFDQYKCDCTRTGFYGENCSTPEFLTRIKLFLKPTPNTVHYILTHFKGFWNVVNNIPFLRNAIMSYVLTSRSHLIDSPPTYNADYGYKSWEAFSNLSYYTRALPPVPDDCPTPLGVKGKKQLPDSNEIVEKLLLRRKFIPDPQGSNMMFAFFAQHFTHQFFKTDHKRGPAFTNGLGHGVDLNHIYGETLARQRKLRLFKDGKMKYQIIDGEMYPPTVKDTQAEMIYPPQVPEHLRFAVGQEVFGLVPGLMMYATIWLREHNRVCDVLKQEHPEWGDEQLFQTSRLILIGETIKIVIEDYVQHLSGYHFKLKFDPELLFNKQFQYQNRIAAEFNTLYHWYPLLPDTFQIHDQKYNYQQFIYNNSILLEHGITQFVESFTRQIAGRVAGGRNVPPAVQKVSQASIDQSRQMKYQSFNEYRKRFMLKPYESFEELTGEKEMSAELEALYGDIDAVELYPALLVEKPRPDAIFGETMVEVGAPFSLKGLMGNVICSPAYWKPSTFGGEVGFQIINTASIQSLICNNVKGCPFTSFSVPDPELIKTVTINASSSRSGLDDINPTVLLKERSTEL
modifications: left off: His6, end not stated, state not stated
notes: COX-2 H374Y mutant protein
- fold reduction in peroxidase activity (COX-2 peroxidase): 300 fold
